Drawing on patent US20260250381A1, this text covers Binding Signal (fold over 6E7 parental antibody) for 18 molecules.

Test [1] deals with T1, human TREM2 (human) (UniProt Q9NZC2).
T1 sequence (looked up): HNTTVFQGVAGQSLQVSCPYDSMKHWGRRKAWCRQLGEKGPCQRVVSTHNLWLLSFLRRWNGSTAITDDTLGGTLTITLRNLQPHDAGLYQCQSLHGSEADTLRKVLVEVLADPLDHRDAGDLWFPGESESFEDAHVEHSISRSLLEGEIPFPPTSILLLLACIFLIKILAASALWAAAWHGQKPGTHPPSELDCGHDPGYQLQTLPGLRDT
Nature of the test: 1st screen, 110 nM Ab.

The target in test [2] is T1, human TREM2 (human). Nature of the test: 2nd screen, 100 nM Ab.

B1: 6E7 variant V34 (antibody, V domains shown)
VH: EVQLVQSGAEVKKPGESLKISCKGSGYSFTSYWIAWVRQMPGKGLEWMGIIYPGDSDTRYSPSFQGQVTISADKSISTAYLQWSSLKASDTAMYFCARQRTFYYDSSDYFDYWGQGTLVTVSS
VL: DIQMTQSPSSVSASVGDRVTITCRASQGISSWLAWYQQKPGKAPKLLIYAASSLQDGVPSRFSGSGSGTDFTLTISSLQPEDFATYFCQQADSFPRTFGQGTKLEIK
On to B1, for which the Binding Signal (fold over 6E7 parental antibody) amounted to 0.34 fold in the test with human TREM2 (human) [1] and 1.02 fold with human TREM2 (human) [2].

B2: 6E7 variant V69 (antibody, V domains shown)
VH: EVQLVQSGAEVKKPGESLKISCKGSGYSFTSYWIAWVRQMPGKGLEWMGIIYPGDSDTRYSPSFQGQVTISADKSISTAYLQWSSLKASDTAMYFCARQRTFYYDSSDYFDYWGQGTLVTVSS
VL: DIQMTQSPSSVSASVGDRVTITCRASQGISSYLAWYQQKPGKAPKLLIYAASSLQNGVPSRFSGSGSGTDFTLTISSLQPEDFATYFCQQADSFPRTFGQGTKLEIK
As to B2, the Binding Signal (fold over 6E7 parental antibody) came to 0.41 fold in the test with human TREM2 (human) [1] and 0.4 fold in the test with human TREM2 (human) [2].

B3: 6E7 variant V44 (antibody, V domains shown)
VH: EVQLVQSGAEVKKPGESLKISCKGSGYSFTSYWIAWVRQMPGKGLEWMGIIYPSDSDTRYSPSFQGQVTISADKSISTAYLQWSSLKASDTAMYFCARQRTFYYDSSDYFDYWGQGTLVTVSS
VL: DIQMTQSPSSVSASVGDRVTITCRASQGISSWLAWYQQKPGKAPKLLIYAASSLQNGVPSRFSGSGSGTDFTLTISSLQPEDFATYFCQQADSFPRTFGQGTKLEIK
B3: the Binding Signal (fold over 6E7 parental antibody) with human TREM2 (human) [1] is 0.65 fold; with human TREM2 (human) [2] it was 0.52 fold.

B4: 6E7 variant V45 (antibody, V domains shown)
VH: EVQLVQSGAEVKKPGESLKISCKGSGYSFTSYWIAWVRQMPGKGLEWMGIIYPGDSDTRYSPSFQGQVTISADKSISTAYLQWSSLKASDTAMYFCARQRTFYYDSSDYFDYWGQGTLVTVSS
VL: DIQMTQSPSSVSASVGDRVTITCRASQGISSFLAWYQQKPGKAPKLLIYAASSLQNGVPSRFSGSGSGTDFTLTISSLQPEDFATYFCQQADSFPRTFGQGTKLEIK
For B4, the Binding Signal (fold over 6E7 parental antibody) with human TREM2 (human) [1] stood at 0.43 fold; with human TREM2 (human) [2], 0.53 fold.

B5: 6E7 variant V55 (antibody, V domains shown)
VH: EVQLVQSGAEVKKPGESLKISCKGSGYSFTSYWIAWVRQMPGKGLEWMGIIYPGDSDTIYSPSHQGQVTISADKSISTAYLQWSSLKASDTAMYFCARQRTFYYDSSDYFDYWGQGTLVTVSS
VL: DIQMTQSPSSVSASVGDRVTITCRASQGISSWLAWYQQKPGKAPKLLIYAASSLQNGVPSRFSGSGSGTDFTLTISSLQPEDFATYFCQQADSFPRTFGQGTKLEIK
For the molecule B5, the Binding Signal (fold over 6E7 parental antibody) with human TREM2 (human) [1] turned out to be 0.24 fold; in the test with human TREM2 (human) [2] it was 0.66 fold.

B6: 6E7 variant V43 (antibody, V domains shown)
VH: EVQLVQSGAEVKKPGESLKISCKGSGYSFTSYWIAWVRQMPGKGLEWMGIIYPGDSGTRYSPSFQGQVTISADKSISTAYLQWSSLKASDTAMYFCARQRTFYYDSSDYFDYWGQGTLVTVSS
VL: DIQMTQSPSSVSASVGDRVTITCRASQGISSWLAWYQQKPGKAPKLLIYAASSLQNGVPSRFSGSGSGTDFTLTISSLQPEDFATYFCQQADSFPRTFGQGTKLEIK
On to B6, for which the Binding Signal (fold over 6E7 parental antibody) in the test with human TREM2 (human) [1] stood at 0.2 fold; with human TREM2 (human) [2], 0.33 fold.

B7: 6E7 variant V46 (antibody, V domains shown)
VH: EVQLVQSGAEVKKPGESLKISCKGSGYSFTSYWIAWVRQMPGKGLEWMGIIYPGDSDTRYSPSFQGQVTISADKSISTAYLQWSSLKASDTAMYFCARQRTFYYDSSDYFDYWGQGTLVTVSS
VL: DIQMTQSPSSVSASVGDRVTITCRASQGISSWLAWYQQKPGKAPKLLIYAASTLQNGVPSRFSGSGSGTDFTLTISSLQPEDFATYFCQQADSFPRTFGQGTKLEIK
Turning to B7, the Binding Signal (fold over 6E7 parental antibody) with human TREM2 (human) [1] amounted to 0.83 fold; with human TREM2 (human) [2], 0.96 fold.

B8: 6E7 variant V47 (antibody, V domains shown)
VH: EVQLVQSGAEVKKPGESLKISCKGSGYSFTSYWIAWVRQMPGKGLEWMGIIYPGDSDTRYSPSFQGQVTISADKSISTAYLQWSSLKASDTAMYFCARQRTFYYDSSDYFDYWGQGTLVTVSS
VL: DIQMTQSPSSVSASVGDRVTITCRASQGISSWLAWYQQKPGKAPKLLIYAASSLQNGVPSRFSGSGSGTDFTLTISSLQPEDFATYFCQQADSFPMTFGQGTKLEIK
Take B8: the values for the Binding Signal (fold over 6E7 parental antibody) with human TREM2 (human) [1] and in the test with human TREM2 (human) [2] were 0.42 fold and 0.47 fold, respectively.

B9: 6E7 variant V58 (antibody, V domains shown)
VH: EVQLVQSGAEVKKPGESLKISCKGSGYSFTSYWIAWVRQMPGKGLEWMGIIYPGDSDTRYSPSFQGQVTISADKSISTAYLQWSSLKASDTAMYFCARQRTFYYDSSDYFDYWGQGTLVTVSS
VL: DIQMTQSPSSVSASVGDRVTITCRASQGISSWLAWYQQKPGKAPKLLIYKASSLQNGVPSRFSGSGSGTDFTLTISSLQPEDFATYFCQQADSFPRTFGQGTKLEIK
For the molecule B9, the Binding Signal (fold over 6E7 parental antibody) with human TREM2 (human) [1] was 0.28 fold; with human TREM2 (human) [2], 0.68 fold.

B10: 6E7 variant V42 (antibody, V domains shown)
VH: EVQLVQSGAEVKKPGESLKISCKGSGYSFTSAWIAWVRQMPGKGLEWMGIIYPGDSDTRYSPSFQGQVTISADKSISTAYLQWSSLKASDTAMYFCARQRTFYYDSSDYFDYWGQGTLVTVSS
VL: DIQMTQSPSSVSASVGDRVTITCRASQGISSWLAWYQQKPGKAPKLLIYAASSLQNGVPSRFSGSGSGTDFTLTISSLQPEDFATYFCQQADSFPRTFGQGTKLEIK
Regarding B10, the Binding Signal (fold over 6E7 parental antibody) in the test with human TREM2 (human) [1] was determined as 0.45 fold; with human TREM2 (human) [2] it was 0.41 fold.

B11: 6E7 variant V68 (antibody, V domains shown)
VH: EVQLVQSGAEVKKPGESLKISCKGSGYSFTSYWIAWVRQMPGKGLEWMGIIYPGDSDTRYSPSFQGQVTISADKSISTAYLQWSSLKASDTAMYFCARQRTFRYDSSDYFDYWGQGTLVTVSS
VL: DIQMTQSPSSVSASVGDRVTITCRASQGISSWLAWYQQKPGKAPKLLIYAASSLQNGVPSRFSGSGSGTDFTLTISSLQPEDFATYFCQQADSFPRTFGQGTKLEIK
Regarding B11, the Binding Signal (fold over 6E7 parental antibody) was found to be 0.44 fold with human TREM2 (human) [1] and 0.43 fold with human TREM2 (human) [2].

B12: 6E7 variant V66 (antibody, V domains shown)
VH: EVQLVQSGAEVKKPGESLKISCKGSGTSFTSYWIAWVRQMPGKGLEWMGIIYPGDSDTRYSPSFQGQVTISADKSISTAYLQWSSLKASDTAMYFCARQRTFYYDSSDYFDYWGQGTLVTVSS
VL: DIQMTQSPSSVSASVGDRVTITCRASQGISSWLAWYQQKPGKAPKLLIYAASSLQNGVPSRFSGSGSGTDFTLTISSLQPEDFATYFCQQADSFPRTFGQGTKLEIK
With B12, the figures for the Binding Signal (fold over 6E7 parental antibody) with human TREM2 (human) [1] and with human TREM2 (human) [2] were 0.25 fold and 0.74 fold, respectively.

B13: 6E7 variant V35 (antibody, V domains shown)
VH: EVQLVQSGAEVKKPGESLKISCKGSGYSFTSYWIAWVRQMPGKGLEWMGIIYPGDSDTRYSPSFQGQVTISADKSISTAYLQWSSLKASDTAMYFCARQRTFYYDSSDYFDYWGQGTLVTVSS
VL: DIQMTQSPSSVSASVGDRVTITCRASQGISSWLAWYQQKPGKAPKLLIYAASSLQNGVPSRFSGSGSGTDFTLTISSLQPEDFATYFCQQAYSFPRTFGQGTKLEIK
Take B13: the figures for the Binding Signal (fold over 6E7 parental antibody) with human TREM2 (human) [1] and in the test with human TREM2 (human) [2] were 0.21 fold and 0.29 fold, respectively.

B14: 6E7 variant V59 (antibody, V domains shown)
VH: EVQLVQSGAEVKKPGESLKISCKGSGYSFTSYWIAWVRQMPGKGLEWMGIIYPGDSDTRYSPSFQGQVTISADKSISTAYLQWSSLKASDTAMYFCARQRTFYYDSSDYFDYWGQGTLVTVSS
VL: DIQMTQSPSSVSASVGDRVTITCRASQGISSWLAWYQQKPGKAPKLLIYAASSLQNGVPSRFSGSGSGTDFTLTISSLQPEDFATYFCMQADSFPRTFGQGTKLEIK
Turning to B14, the results for the Binding Signal (fold over 6E7 parental antibody) with human TREM2 (human) [1] and in the test with human TREM2 (human) [2] were 0.19 fold and 0.6 fold, respectively.

B15: 6E7 variant V56 (antibody, V domains shown)
VH: EVQLVQSGAEVKKPGESLKISCKGSGYSFTSYWIAWVRQMPGKGLEWMGIIYPGDSDTRYQPSFQGQVTISADKSISTAYLQWSSLKASDTAMYFCARQRTFYYDSSDYFDYWGQGTLVTVSS
VL: DIQMTQSPSSVSASVGDRVTITCRASQGISSWLAWYQQKPGKAPKLLIYAASSLQNGVPSRFSGSGSGTDFTLTISSLQPEDFATYFCQQADSFPRTFGQGTKLEIK
B15: the Binding Signal (fold over 6E7 parental antibody) with human TREM2 (human) [1] amounted to 0.23 fold; in the test with human TREM2 (human) [2] it was 0.59 fold.

B16: 6E7 variant V67 (antibody, V domains shown)
VH: EVQLVQSGAEVKKPGESLKISCKGSGYSFTSYWIAWVRQMPGKGLEWMGMIYPGDSDTRYSPSFQGQVTISADKSISTAYLQWSSLKASDTAMYFCARQRTFYYDSSDYFDYWGQGTLVTVSS
VL: DIQMTQSPSSVSASVGDRVTITCRASQGISSWLAWYQQKPGKAPKLLIYAASSLQNGVPSRFSGSGSGTDFTLTISSLQPEDFATYFCQQADSFPRTFGQGTKLEIK
As for B16, the Binding Signal (fold over 6E7 parental antibody) worked out at 0.8 fold in the test with human TREM2 (human) [1] and 0.84 fold with human TREM2 (human) [2].

B17: 6E7 variant V54 (antibody, V domains shown)
VH: EVQLVQSGAEVKKPGESLKISCKGSGYSFTSQWIAWVRQMPGKGLEWMGIIYPGDSDTRYSPSFQGQVTISADKSISTAYLQWSSLKASDTAMYFCARQRTFYYDSSDYFDYWGQGTLVTVSS
VL: DIQMTQSPSSVSASVGDRVTITCRASQGISSWLAWYQQKPGKAPKLLIYAASSLQNGVPSRFSGSGSGTDFTLTISSLQPEDFATYFCQQADSFPRTFGQGTKLEIK
With B17, the Binding Signal (fold over 6E7 parental antibody) was 0.55 fold in the test with human TREM2 (human) [1] and 0.54 fold with human TREM2 (human) [2].

B18: 6E7 variant V57 (antibody, V domains shown)
VH: EVQLVQSGAEVKKPGESLKISCKGSGYSFTSYWIAWVRQMPGKGLEWMGIIYPGDSDTRYSPSFQGQVTISADKSISTAYLQWSSLKASDTAMYFCARQRTFYYDSSDYFDYWGQGTLVTVSS
VL: DIQMTQSPSSVSASVGDRVTITCAASQGISSWLAWYQQKPGKAPKLLIYAASSLQNGVPSRFSGSGSGTDFTLTISSLQPEDFATYFCQQADSFPRTFGQGTKLEIK
With B18, the Binding Signal (fold over 6E7 parental antibody) with human TREM2 (human) [1] came out at 0.84 fold; with human TREM2 (human) [2], 0.85 fold.
